# Assay results as given in patent publication US20020147326A1, “Hexameric fusion proteins and uses therefor” (SmithKline Beecham Corporation, priority 1996, published 2002).
# What was measured:
# CD28-Ig [1] = molecular target: T1, CD28-Ig (Homo sapiens, UniProt P10747); test: ELISA binding of biotinylated fusion proteins to immobilized CD28-Ig; set-up: native leader and extracellular domain peptide of CD28 and CD80 were grafted onto a human IgG1 heavy chain Fc region; human IgG1 Fc (hinge/CH2/CH3); made in house; host or cells: CHO cells; conditions: for binding to immobilized CD28-Ig: biotinylated protein, ELISA
# Procedure: For this assay format, the CD80-Igαtp protein was biotinylated for simplicity of assay and for ease of detection since the CD28 protein absorbed to the plate wells was also a human Ig fusion construct. Biotinylation was carried out essentially as described in Avidin-Biotin Chemistry: A handbook, M. D. Savage et al., Pierce Chemical Company (1992). […] All steps of the assay after coating were carried out at room temperature.
# The wells of 96 well microtiter plates (Immunlon 4, Dynatech Laboratories) were coated with CD28-Ig (1, 2, or4 μg/ml) in 100 μl/well of 0.1 M sodium bicarbonate, pH 9.4 and incubated overnite @4° C. The wells were washed with PBS (phosphate buffered saline) and blocked with 0.5% gelatin in PBS for 1 hour. Following an additional PBS wash, biotinylated CD80-Igαtp was serially diluted in PBS containing 1 mg/ml BSA, 0.05% Tween directly in the wells in a final volume of 0.1 ml and incubated for 1 hour. The wells were washed with PBS and bound CD80-Igαtp protein was measured by the addition of 0.1 ml of strepavidin-HRP (streptavidin conjugated with horseradish peroxidase (Southern Biotech)) at a 1:2000 dilution for 1 hour, followed by washing and color development with 100 μl ABTS substrate (Kierkegaard and Perry Laboratories Inc., Maryland) and measurement of absorbance at 405 nm. In some cases the color reactions were arrested by addition of 100 μl of 1% SDS prior to measurement of absorbance. In this figure, “CD28-Fc”, “CTLA4-Fc”, and “B7-FcA” denote CD28-Ig, CTLA4-Ig, and CD80-Igαtp, respectively.
# CD28-Ig [2] = molecular target: T1, CD28-Ig; set-up: Ig fusion partner; conditions: read-out: approximate Kd of soluble CD80-Ig binding to immobilized CD28-Ig; Linsley et al. 1991; cited from earlier work
# [3] = molecular target: T2, human CD28 on PCD28.1.s2.1 cells (Homo sapiens, UniProt P10747); test: Flow cytometry binding to cells expressing cell-surface CD28; format: cell-based; conditions: on ice
# T2 construct: expressed in transfected cells; host or cells: PCD28.1.s2.1 (PE30.2 murine T-cell hybridoma transfected with pHbactCd28neo)
# Procedure: Non-adherent CD28 expressing cells (PCD28.1.s2.1) were used for this assay format. PCD28.1.S2.1 cells were created by transfection of PE30.2 cells [D. Emilie et al., Eur. J. Immunol., 19:1619-1624 (1989)] with a vector for expression of human CD28 [D. Couez et al., Molecular Immunology, 31:47-57 (1994)]. All incubations were carried out on ice. Unlabelled CD80- and CD86-Igαtp or CD80 and CD86-Ig were incubated with the cells in binding buffer consisting of PBS w/o Ca+2/Mg+2, 0.2% bovine serum albumin and 0.1 % sodium azide. After washing twice in binding buffer, bound fusion proteins were detected with a 1:2000 dilution of a goat anti-human polyclonal antibody labeled with FITC (Flourescein isothiocyanate, Southern Biotech). Following two additional washes in binding buffer, the cells were resuspended in binding buffer and analyzed on a FACSort analyzer (Becton-Dickinson) using a 488 nm laser.
# CTLA4-Ig = molecular target: T3, CTLA4-Ig (Homo sapiens, UniProt P16410, F162A); test: Isothermal titration calorimetry, binding to CTLA4-Ig in solution
# T3 construct: junction spanning the end of the CTLA4 extracellular domain and the hinge region; human IgG1 Fc (hinge/CH2/CH3); made in house; host or cells: CHO cells (by 'in a similar manner' to CD28-Ig)
# Description: The solution binding properties of the hexameric and standard Ig fusion proteins of CD80 and CD86 were compared using isothermal titration calorimetry, essentially as described previously for other proteins [K. Johanson et. al., J. Biol. Chem, 270: 9459-9471 (1995), and references therein].
# The error in Kd's is about a factor of 2 and the error in molar binding ratio's is 10-20%. […] The molecular masses of CD80-Igαtp and CD86-Igαtp were estimated as 6× the mass of the respective Ig proteins plus 40,000 Da. contributed by the twelve tailpiece segments.
# T3 sequence (P16410 38-162 F162A): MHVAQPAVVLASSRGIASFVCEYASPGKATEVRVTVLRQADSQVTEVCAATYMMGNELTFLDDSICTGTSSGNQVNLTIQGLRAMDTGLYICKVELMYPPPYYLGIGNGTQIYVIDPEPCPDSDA
Substance,binding to immobilized CD28-Ig (CD28-Ig [1]),Kd (CD28-Ig [2]),binding to CD28 positive cells [3],saturation of OD405 (CD28-Ig [1]; biotinylated CD80-Igαtp at 50 μg/ml),ratio of Igαtp to Ig titration equivalence points (molar ratio) (CTLA4-Ig)
CD80-Ig: CD80 leader and extracellular domain grafted onto human IgG1 heavy chain Fc region; monomeric Ig fusion (Ig homodimer) [reference compound],little binding and only at much higher concentrations,~200 nM,no binding,,
CD80-Igαtp: CD80 leader and extracellular domain linked to human IgG1 hinge/CH2/CH3 and terminating in human IgA1 tailpiece (αtp),concentration dependent binding,,specific binding,about 50%,about 6
CD86-Igαtp: CD86 leader and extracellular domain linked to human IgG1 Fc and terminating in human IgA1 tailpiece (αtp),good binding,,specific binding,,
